Results as given in article PMC11343458, “Extracellular proteolysis of tandemly duplicated pheromone propeptides affords additional complexity to bacterial quorum sensing” (PLOS Biology, 2024).

Columns and labels:
Rap^BA3 = Rap^BA3 overexpression; cited from earlier work
[1] = biological target: Rap^3T (Bacillus phage phi3T); test: SEC-MALS; Rap^3T at 1 mg/ml, 50 mM Hepes (pH 7), 150 mM NaCl; apo, or preincubated with 100 μm pheromone (SRGHTS or RRGHTA) with 10 μm pheromone in the mobile phase
[2] = biological target: Rap^105 labelled through its His tag (MST) (Bacillus phage phi105); test: MST; Rap^105 labelled with RED-tris-NTA on the His tag at 250 nM; peptide in a 16-point 2-fold dilution from 2 to 3 x 10^-5 μm; PBS with 0,02% tween; 15 min at room temperature; Hill model
[3] = biological target: Rap^105 (Bacillus phage phi105); test: thermal shift assay; Sypro Orange, 50 μm protein, 100 μm synthetic peptide, 20 mM Tris (pH 8), 250 mM NaCl (or filtered supernatant in the maturation assays), heated from 20 to 85°C
[4] = biological target: T1, Rap^105 labelled through its His tag (MST) (Bacillus phage phi105); test: MST
T1 chain: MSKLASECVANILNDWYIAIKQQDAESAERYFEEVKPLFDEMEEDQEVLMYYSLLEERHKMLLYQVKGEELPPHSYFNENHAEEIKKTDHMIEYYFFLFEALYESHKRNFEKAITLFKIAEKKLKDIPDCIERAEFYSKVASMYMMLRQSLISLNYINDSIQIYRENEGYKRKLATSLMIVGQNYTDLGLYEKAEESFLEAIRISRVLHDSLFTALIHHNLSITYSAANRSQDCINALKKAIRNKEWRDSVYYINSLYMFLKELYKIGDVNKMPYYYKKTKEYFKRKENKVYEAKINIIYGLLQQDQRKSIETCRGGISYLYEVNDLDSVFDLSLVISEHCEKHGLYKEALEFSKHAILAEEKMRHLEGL

In the case of “RRGQT [peptide that relieves Rap^BA3 repression in previous work]”, the “relief of Rap^BA3 repression of sporulation and competence” value (Rap^BA3) is listed as “repression is relieved”.

Rap^3T (receptor) gave a stoichiometry N [1] of 2.

B1: ERPVGT (peptide)
peptide: ERPVGT
Molecule B1 has an EC50 [2] of 34 nM, a stabilization of the denaturation temperature [3] of 9 degrees and an EC50 [4] of 38.2 nM.
